Source: patent publication US20230340143A1 (published 2023)
Positions count from the first letter of the chain named. Numbers in names are those of the source.

T1: Human CD39-L1 (human, UniProt Q9Y5L3 1-495)
T1 construct: Recombinant protein coated in ELISA; also called NTPDase2; ENTPD2
T1 sequence: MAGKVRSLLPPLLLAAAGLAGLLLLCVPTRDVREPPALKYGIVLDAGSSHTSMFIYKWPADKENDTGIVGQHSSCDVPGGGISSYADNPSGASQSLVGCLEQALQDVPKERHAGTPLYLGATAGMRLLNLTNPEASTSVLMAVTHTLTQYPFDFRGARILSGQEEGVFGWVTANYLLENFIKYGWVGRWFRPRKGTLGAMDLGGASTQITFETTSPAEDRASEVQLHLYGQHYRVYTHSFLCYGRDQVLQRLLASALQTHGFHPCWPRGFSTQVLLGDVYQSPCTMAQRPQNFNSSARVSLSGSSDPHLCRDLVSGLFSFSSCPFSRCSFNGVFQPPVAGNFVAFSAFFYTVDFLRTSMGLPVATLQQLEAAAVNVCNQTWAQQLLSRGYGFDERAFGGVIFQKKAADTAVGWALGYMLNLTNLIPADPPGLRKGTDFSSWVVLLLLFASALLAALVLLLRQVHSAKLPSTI

T2: CD39 mutant 5 (human, UniProt P49961 1-510)
T2 construct: Expressed on transfected HEK-293T cells; also called M5
T2 chain: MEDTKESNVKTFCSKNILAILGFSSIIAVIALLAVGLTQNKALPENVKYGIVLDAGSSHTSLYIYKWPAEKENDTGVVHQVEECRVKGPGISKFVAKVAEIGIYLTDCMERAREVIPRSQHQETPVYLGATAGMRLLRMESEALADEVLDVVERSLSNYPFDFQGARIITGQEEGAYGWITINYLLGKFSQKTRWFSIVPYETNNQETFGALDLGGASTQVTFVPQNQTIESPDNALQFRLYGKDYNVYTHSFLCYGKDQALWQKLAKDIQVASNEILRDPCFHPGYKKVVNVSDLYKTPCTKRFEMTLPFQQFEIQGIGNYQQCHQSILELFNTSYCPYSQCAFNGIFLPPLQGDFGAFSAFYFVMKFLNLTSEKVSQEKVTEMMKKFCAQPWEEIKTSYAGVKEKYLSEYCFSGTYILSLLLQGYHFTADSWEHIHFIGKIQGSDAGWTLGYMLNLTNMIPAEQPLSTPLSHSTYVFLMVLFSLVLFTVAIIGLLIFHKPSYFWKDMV

T3: human CD39 expressed at the cell surface (human, UniProt P49961 1-510)
T3 construct: On CHO transfectants, HEK-293T transfectants or endogenous on Ramos cells; also called huCD39; CHO-huCD39
T3 sequence: T2 chain with A96Q, A99N, A143E, E147R

T4: CD39 mutant 19 (human, UniProt P49961 1-510)
T4 construct: Expressed on transfected HEK-293T cells; also called M19
T4 chain: T2 chain with A96Q, A99N, R138A, M139A, E142K, A143E, E147R

B1: antibody I-394 (antibody, V domains shown)
VH: EVQLQQSGPELVKPGASVKMSCKASGYTFTDYNMHWVKQSHGRTLEWIGYIVPLNGGSTFNQKFKGRATLTVNTSSRTAYMELRSLTSEDSAAYYCARGGTRFAYWGQGTLVTVSA
VL: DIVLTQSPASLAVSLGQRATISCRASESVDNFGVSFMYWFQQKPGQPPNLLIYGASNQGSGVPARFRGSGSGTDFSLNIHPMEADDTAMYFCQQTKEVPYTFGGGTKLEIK
notes: Mouse hybridoma antibody; also produced with human IgG1 constant domains carrying L234A/L235E/G237A/A330S/P331S (Kabat EU) and a huCk constant domain
B2: antibody I-395 (antibody, V domains shown)
VH: EVQLQQSGPELVKPGASVRMSCKASGYTFTDYNMHWVKKNHGKGLEWIGYINPNNGGTTYNQKFKGKATLTVNTSSKTAYMELRSLTSEDSAVYYCTRGGTRFASWGQGTLVTVSA
VL: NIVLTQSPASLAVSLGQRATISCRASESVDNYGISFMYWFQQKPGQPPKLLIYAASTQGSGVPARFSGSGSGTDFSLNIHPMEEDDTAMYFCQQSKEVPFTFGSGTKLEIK
notes: Hybridoma antibody purified on protein A
B3: antibody I-396 (antibody, V domains shown)
VH: EVQLQQSGAELVKPGASVKLSCIVSGFNIKDTYINWVKQRPEQGLEWIGRIDPANGNTKYDPKFQGKATMTSDTSSNTAYLHLSSLTSDDSAVYYCARWGYDDEEADYFDSWGQGTTLTVSS
VL: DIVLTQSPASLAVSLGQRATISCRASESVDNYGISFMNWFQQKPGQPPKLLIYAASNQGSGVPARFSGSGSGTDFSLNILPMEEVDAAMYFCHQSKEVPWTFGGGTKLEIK
notes: as for B2
B4: antibody I-399 (antibody, V domains shown)
VH: PVQLQQPGAEVVMPGASVKLSCKASGYTFTSFWMNWMRQRPGQGLEWIGEIDPSDFYTNSNQRFKGKATLTVDKSSSTAYMQLSSLTSEDSAVYFCARGDFGWYFDVWGTGTSVTVSS
VL: EIVLTQSPTTMTSSPGEKITFTCSASSSINSNYLHWYQQKPGFSPKLLIYRTSNLASGVPTRFSGSGSGTSYSLTIGTMEAEDVATYYCQQGSSLPRTFGGGTKLEIK
notes: as for B2

Tests used:
Human CD39-L1 = biological target: T1, Human CD39-L1; assay: ELISA, recombinant isoform coated
Procedure: Wells were washed in TBS Tween 20, and further saturated 2H at RT in TBS Blocking buffer. Dose range concentration of primary antibody was incubated in TBS blocking buffer for 2 h at RT. Wells were washed in TBS Tween 20. […] Optical density was measured on Enspire™ at OD=450.

CD39 mutant 5 [1] = biological target: T2, CD39 mutant 5; assay: flow cytometry screen on HEK-293T cells expressing CD39 mutant 5
[2] = biological target: T3, human CD39 expressed at the cell surface; assay: flow cytometry screen on CHO expressing huCD39 against wild type CHO
Procedure: In initial immunization protocols, the primary screen involved testing supernatant (SN) of growing clones by flow cytometry using wild type CHO and CHO expressing huCD39 cell lines. Cells were stained with 0.1 µM and 0.005 µM CFSE, respectively. […] For antibodies that bound huCD39, supernatants were then screened for inhibition of the enzymatic activity of soluble CD39 using the screening assay developed and described above (Methods).
In view of the absence of antibodies able to inhibit soluble CD39, a further immunization was carried out with a screening protocol designed to favor the generation of antibodies that bind the active site of CD39 as identified by the epitope of antibody BY40. Briefly, the primary screen involved testing supernatant (SN) of growing clones by flow cytometry using wild type CHO and CHO expressing huCD39 cell lines, as in the preceding immunizations, followed by screening for loss of binding Hek-293T cells expressing CD39 mutant 5, compared to wild-type CD39, as shown in Table 1. Mutant 5 has substitutions at residues Q96, N99, E143 and R147.

CD39 mutant 5 [3] = biological target: T2, CD39 mutant 5; assay: flow cytometry on HEK-293T cells expressing mutant 5
Procedure: (§1) In order to define the epitopes of the further anti-CD39 antibodies of Example 5, they were tested for loss of binding to the panel of CD39 mutants as described in Example 1 and Table 1. Mutants were transfected in Hek-293T cells, as shown in the table 1, using numbering of SEQ ID NO: 1.Dose-ranges of test antibodies (10 - 2.5 - 0.625 - 0.1563 - 0.0391 - 0.0098 - 0.0024 - 0.0006 µg/ml) are tested on the 20 generated mutants by flow cytometry.

CD39 mutant 19 = biological target: T4, CD39 mutant 19; assay: flow cytometry on HEK-293T cells expressing mutant 19
Procedure: as §1

Binder	binding result (Human CD39-L1)	binding result (CD39 mutant 5 [1])	binding result [2]	binding result (CD39 mutant 5 [3])	binding result (CD39 mutant 19)
B1	no binding	binds			
B2			binds		
B3			binds	binds	binds
B4			binds		
